Test results from US20210130436A1.
Changes are numbered by the printed parent chain. Numbers in names are those of the source.

B1: PD-L2 H15Q IgV-Fc (Fc fusion, not shown: a dimerising Fc or GST)
chain: LFTVTVPKELYIIEQGSNVTLECNFDTGSHVNLGAITASLQKVENDTSPHRERATLLEEQLPLGKASFHIPQVQVRDEGQYQCIIIYGVAWDYKYLTLKVKA
B2: PD-L2 V89D IgV-Fc (Fc fusion, not shown: a dimerising Fc or GST)
chain: B1 chain with Q15H, V89D
B3: PD-L2 Q82R/V89D IgV-Fc (Fc fusion, not shown: a dimerising Fc or GST)
chain: B1 chain with Q15H, Q82R, V89D
B4: PD-L2 S67L/V89D IgV-Fc (Fc fusion, not shown: a dimerising Fc or GST)
chain: B1 chain with Q15H, S67L, V89D
B5: PD-L2 S67L/I86T IgV-Fc (Fc fusion, not shown: a dimerising Fc or GST)
chain: B1 chain with Q15H, S67L, I86T
B6: PD-L2 H15Q/Q82R/V89D IgV-Fc (Fc fusion, not shown: a dimerising Fc or GST)
chain: B1 chain with Q82R, V89D
B7: PD-L2 E44D/V89D/W91R IgV-Fc (Fc fusion, not shown: a dimerising Fc or GST)
chain: B1 chain with Q15H, E44D, V89D, W91R
B8: PD-L2 I13V/S67L/V89D IgV-Fc (Fc fusion, not shown: a dimerising Fc or GST)
chain: B1 chain with I13V, Q15H, S67L, V89D
B9: PD-L2 H15Q/S67L/I86T IgV-Fc (Fc fusion, not shown: a dimerising Fc or GST)
chain: B1 chain with S67L, I86T
B10: PD-L2 I13V/S39I/E44D/Q82R/V89D IgV-Fc (Fc fusion, not shown: a dimerising Fc or GST)
chain: B1 chain with I13V, Q15H, S39I, E44D, Q82R, V89D
B11: PD-L2 H15Q/T47A/Q72H/R76G/I86T IgV-Fc (Fc fusion, not shown: a dimerising Fc or GST)
chain: B1 chain with T47A, Q72H, R76G, I86T
B12: PD-L2 H15Q/S39I/S67L/V89D IgV-Fc (Fc fusion, not shown: a dimerising Fc or GST)
chain: B1 chain with S39I, S67L, V89D
B13: PD-L2 N32D/S67L/V89D IgV-Fc (Fc fusion, not shown: a dimerising Fc or GST)
chain: B1 chain with Q15H, N32D, S67L, V89D
B14: PD-L2 H15Q/S67L/Q72H/R76G/V89D IgV-Fc (Fc fusion, not shown: a dimerising Fc or GST)
chain: B1 chain with S67L, Q72H, R76G, V89D
B15: PD-L2 H15Q/Q72H/Q74R/R76G/I86T IgV-Fc (Fc fusion, not shown: a dimerising Fc or GST)
chain: B1 chain with Q72H, Q74R, R76G, I86T
B16: PD-L2 G28V/Q72H/R76G/I86T IgV-Fc (Fc fusion, not shown: a dimerising Fc or GST)
chain: B1 chain with Q15H, G28V, Q72H, R76G, I86T
B17: PD-L2 I13V/H15Q/S39I/E44D/S67L IgV-Fc (Fc fusion, not shown: a dimerising Fc or GST)
chain: B1 chain with I13V, S39I, E44D, S67L
B18: PD-L2 H15Q/T47A IgV-Fc (Fc fusion, not shown: a dimerising Fc or GST)
chain: B1 chain with T47A
B19: PD-L2 I13V/H15Q/V89D IgV-Fc (Fc fusion, not shown: a dimerising Fc or GST)
chain: B1 chain with I13V, V89D
B20: PD-L2 I13V/H15Q/Q82R/V89D IgV-Fc (Fc fusion, not shown: a dimerising Fc or GST)
chain: B1 chain with I13V, Q82R, V89D
B21: PD-L2 H15Q/V31M/S67L/Q82R/V89D IgV-Fc (Fc fusion, not shown: a dimerising Fc or GST)
chain: B1 chain with V31M, S67L, Q82R, V89D
B22: PD-L2 I13V/H15Q/T47A/Q82R IgV-Fc (Fc fusion, not shown: a dimerising Fc or GST)
chain: B1 chain with I13V, T47A, Q82R
B23: PD-L2 I13V/H15Q/V31A/N45S/Q82R/V89D IgV-Fc (Fc fusion, not shown: a dimerising Fc or GST)
chain: B1 chain with I13V, V31A, N45S, Q82R, V89D
B24: PD-L2 H15Q/T47A/H69L/Q82R/V89D IgV-Fc (Fc fusion, not shown: a dimerising Fc or GST)
chain: B1 chain with T47A, H69L, Q82R, V89D
B25: PD-L2 I13V/H15Q/T47A/H69L/R76G/V89D IgV-Fc (Fc fusion, not shown: a dimerising Fc or GST)
chain: B1 chain with I13V, T47A, H69L, R76G, V89D
B26: PD-L2 I13V/H15Q/R76G/D77N/Q82R/V89D IgV-Fc (Fc fusion, not shown: a dimerising Fc or GST)
chain: B1 chain with I13V, R76G, D77N, Q82R, V89D
B27: PD-L2 I13V/H15Q/T47A/R76G/V89D IgV-Fc (Fc fusion, not shown: a dimerising Fc or GST)
chain: B1 chain with I13V, T47A, R76G, V89D
B28: PD-L2 I13V/H15Q/Q72H/R76G/I86T IgV-Fc (Fc fusion, not shown: a dimerising Fc or GST)
chain: B1 chain with I13V, Q72H, R76G, I86T
B29: PD-L2 H15Q/T47A/S67L/Q82R/V89D IgV-Fc (Fc fusion, not shown: a dimerising Fc or GST)
chain: B1 chain with T47A, S67L, Q82R, V89D
B30: PD-L2 F2L/H15Q/D46E/T47A/Q72H/R76G/Q82R/V89D IgV-Fc (Fc fusion, not shown: a dimerising Fc or GST)
chain: B1 chain with F2L, D46E, T47A, Q72H, R76G, Q82R, V89D
B31: PD-L2 I13V/H15Q/T47A/E58G/S67L/Q82R/V89D IgV-Fc (Fc fusion, not shown: a dimerising Fc or GST)
chain: B1 chain with I13V, T47A, E58G, S67L, Q82R, V89D
B32: PD-L2 H15Q/N24S/T47A/Q72H/R76G/V89D IgV-Fc (Fc fusion, not shown: a dimerising Fc or GST)
chain: B1 chain with N24S, T47A, Q72H, R76G, V89D
B33: PD-L2 H15Q/N18D/T47A/Q72H/V73A/R76G/I86T/V89D IgV-Fc (Fc fusion, not shown: a dimerising Fc or GST)
chain: B1 chain with N18D, T47A, Q72H, V73A, R76G, I86T, V89D
B34: PD-L2 I13V/H15Q/T37A/E44D/S48C/S67L/Q82R/V89D IgV-Fc (Fc fusion, not shown: a dimerising Fc or GST)
chain: B1 chain with I13V, T37A, E44D, S48C, S67L, Q82R, V89D
B35: PD-L2 I13V/H15Q/T47A/Q72H/R76G/I86T IgV-Fc (Fc fusion, not shown: a dimerising Fc or GST)
chain: B1 chain with I13V, T47A, Q72H, R76G, I86T
B36: PD-L2 H15Q/S39I/E44D/Q72H/V75G/R76G/Q82R/V89D IgV-Fc (Fc fusion, not shown: a dimerising Fc or GST)
chain: B1 chain with S39I, E44D, Q72H, V75G, R76G, Q82R, V89D
B37: PD-L2 H15Q/T47A/S67L/R76G/Q82R/V89D IgV-Fc (Fc fusion, not shown: a dimerising Fc or GST)
chain: B1 chain with T47A, S67L, R76G, Q82R, V89D
B38: PD-L2 I13V/H15Q/T47A/S67L/Q72H/R76G/Q82R/V89D IgV-Fc (Fc fusion, not shown: a dimerising Fc or GST)
chain: SEQLFTVTVPKELYIVEQGSNVTLECNFDTGSHVNLGAITASLQKVENDASPHRERATLLEEQLPLGKALFHIPHVQVGDEGQYRCIIIYGDAWDYKYLTLKVKA
B39: variant CD155 IgV-Fc G111R (Fc fusion, not shown: a dimerising Fc or GST)
chain: WPPPGTGDVVVQAPTQVPGFLGDSVTLPCYLQVPNMEVTHVSQLTWARHGESGSMAVFHQTQGPSYSESKRLEFVAARLGAELRNASLRMFGLRVEDEGNYTCLFVTFPQRSRSVDIWLRVL
B40: CD155 P18S/T45S/T61K/S65W/S67A/F91S/G111R IgV-Fc (Fc fusion, not shown: a dimerising Fc or GST)
chain: B39 chain with P18S, T45S, T61K, S65W, S67A, F91S
B41: WT CD112-Fc ECD, Q92692 32-360 (Fc fusion, not shown: a dimerising Fc or GST)
chain: QDVRVQVLPEVRGQLGGTVELPCHLLPPVPGLYISLVTWQRPDAPANHQNVAAFHPKMGPSFPSPKPGSERLSFVSAKQSTGQDTEAELQDATLALHGLTVEDEGNYTCEFATFPKGSVRGMTWLRVIAKPKNQAEAQKVTFSQDPTTVALCISKEGRPPARISWLSSLDWEAKETQVSGTLAGTVTVTSRFTLVPSGRADGVTVTCKVEHESFEEPALIPVTLSVRYPPEVSISGYDDNWYLGRTDATLSCDVRSNPEPTGYDWSTTSGTFPTSAVAQGSQLVIHAVDSLFNTTFVCTVTNAVGMGRAEQVIFVRETPNTAGAGATGG

Assays:
[1] = target: PD-1 (PDCD1) (Homo sapiens (Human)) (UniProt Q15116); assay: cell-based or functional assay
Sequence of PD-1 (PDCD1) (Homo sapiens (Human)) (Q15116 21-288): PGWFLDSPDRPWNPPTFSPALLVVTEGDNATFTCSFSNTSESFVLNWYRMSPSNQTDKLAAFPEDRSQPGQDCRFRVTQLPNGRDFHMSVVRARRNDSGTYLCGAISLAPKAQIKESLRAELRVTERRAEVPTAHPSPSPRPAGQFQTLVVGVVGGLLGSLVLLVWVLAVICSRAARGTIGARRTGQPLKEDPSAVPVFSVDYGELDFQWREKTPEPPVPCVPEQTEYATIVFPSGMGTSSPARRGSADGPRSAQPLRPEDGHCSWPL

CD96 [2] = target: T1, CD96 (UniProt P40200); assay: flow cytometry, MFI ratio to WT CD155 ECD-Fc, CD96-transfected cells
T1 sequence (looked up): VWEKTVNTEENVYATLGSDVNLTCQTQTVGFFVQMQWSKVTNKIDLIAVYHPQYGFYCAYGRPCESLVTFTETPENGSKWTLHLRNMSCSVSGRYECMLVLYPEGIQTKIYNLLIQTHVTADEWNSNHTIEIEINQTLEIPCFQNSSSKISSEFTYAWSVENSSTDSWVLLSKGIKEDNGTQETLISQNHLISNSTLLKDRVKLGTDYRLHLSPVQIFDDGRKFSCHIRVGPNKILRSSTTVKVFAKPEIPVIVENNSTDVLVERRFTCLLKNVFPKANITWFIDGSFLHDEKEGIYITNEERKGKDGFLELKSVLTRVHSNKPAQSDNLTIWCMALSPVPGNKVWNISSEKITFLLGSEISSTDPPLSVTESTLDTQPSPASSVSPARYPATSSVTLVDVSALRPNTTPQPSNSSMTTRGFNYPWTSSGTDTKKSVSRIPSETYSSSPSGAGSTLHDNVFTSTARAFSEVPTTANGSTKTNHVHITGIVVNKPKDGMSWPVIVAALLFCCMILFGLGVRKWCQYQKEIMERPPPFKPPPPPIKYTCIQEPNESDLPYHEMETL

CD96 [3] = target: T1, CD96; assay: flow cytometry, Fc fusion at 100 nM, CD96-transfected cells
[4] = target: T2, CD226 (Homo sapiens (Human)) (UniProt Q15762); assay: flow cytometry on CD226-expressing cells, Fc fusion at 100 nM
T2 sequence: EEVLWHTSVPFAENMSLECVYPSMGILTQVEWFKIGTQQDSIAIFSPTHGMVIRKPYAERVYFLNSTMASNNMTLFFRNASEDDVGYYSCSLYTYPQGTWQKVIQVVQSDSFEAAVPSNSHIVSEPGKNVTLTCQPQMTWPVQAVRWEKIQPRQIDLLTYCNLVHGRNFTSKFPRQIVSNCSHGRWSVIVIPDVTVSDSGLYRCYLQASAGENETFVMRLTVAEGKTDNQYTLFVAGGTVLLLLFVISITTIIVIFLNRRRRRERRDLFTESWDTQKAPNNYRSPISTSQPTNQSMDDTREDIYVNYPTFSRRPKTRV

CD112R, Q6DKI7 = target: T3, CD112R, Q6DKI7; assay: flow cytometry, cells expressing CD112R, 20 nM; settings: remark: other sources report otherwise
T3 chain: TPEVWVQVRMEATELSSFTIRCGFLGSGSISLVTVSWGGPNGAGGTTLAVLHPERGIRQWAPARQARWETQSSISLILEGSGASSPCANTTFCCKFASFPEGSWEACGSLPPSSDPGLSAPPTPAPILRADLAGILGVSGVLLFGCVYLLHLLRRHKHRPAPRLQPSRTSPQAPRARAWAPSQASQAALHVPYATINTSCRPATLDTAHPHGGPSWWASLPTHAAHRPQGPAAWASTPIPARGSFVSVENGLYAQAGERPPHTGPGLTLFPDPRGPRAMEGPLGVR

Binder | IFN gamma levels pg/mL (MLR) [1] | further results
B1 | 1820 pg/mL | –
B2 | 1170 pg/mL | –
B3 | 1620 pg/mL | –
B4 | 1230 pg/mL | –
B5 | 1020 pg/mL | –
B6 | 1080 pg/mL | –
B7 | 1560 pg/mL | –
B8 | 868 pg/mL | –
B9 | 1030 pg/mL | –
B10 | 936 pg/mL | –
B11 | 1600 pg/mL | –
B12 | 1230 pg/mL | –
B13 | 1190 pg/mL | –
B14 | 1060 pg/mL | –
B15 | 934 pg/mL | –
B16 | 1780 pg/mL | –
B17 | 1260 pg/mL | –
B18 | 1640 pg/mL | –
B19 | 1120 pg/mL | –
B20 | 1600 pg/mL | –
B21 | 1210 pg/mL | –

Binder | IFN gamma levels pg/mL (MLR) [1] | further results
B22 | 1700 pg/mL | –
B23 | 1720 pg/mL | –
B24 | 1730 pg/mL | –
B25 | 1080 pg/mL | –
B26 | 1190 pg/mL | –
B27 | 1250 pg/mL | –
B28 | 1220 pg/mL | –
B29 | 1200 pg/mL | –
B30 | 1170 pg/mL | –
B31 | 836 pg/mL | –
B32 | 1090 pg/mL | –
B33 | 1070 pg/mL | –
B34 | 1750 pg/mL | –
B35 | 1090 pg/mL | –
B36 | 941 pg/mL | –
B37 | 1100 pg/mL | –
B38 | 1560 pg/mL | Fold increase over wildtype PD-L2 IgV-Fc (IFN gamma, MLR) [1]: 1.13 fold
B39 | – | Fold ↑ to WT ECD (CD96 [2]): 0.03 fold; MFI at 100 nM (CD96 [3]): 3320 MFI
B40 | – | MFI at 100 nM [4]: 2110 MFI
B41 | – | Fold Increase to WT IgV (CD112R, Q6DKI7): 0.75 fold; MFI at 20 nM (CD112R, Q6DKI7): 1250
